Measurements: PMC4138556

Biological target: D/D domain of human regulatory RIIα subunits of PKA (human)
Experiment: AlphaScreen or HTRF

D/D domain of human regulatory RIIα subunits of PKA (human), sequence (P13861 2-44): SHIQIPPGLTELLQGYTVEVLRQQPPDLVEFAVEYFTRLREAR

IC50: 12.7 nM
Substance: peptide AKAP18δ-L314E
